Measured values published in article doi:10.1101/333070.

Target: mouse proNGF (mouse) (UniProt P01139)
Assay: SAXS

stoichiometry N: 2
Substance: mouse proNGF (from UniProt P01139 19-241) (natural protein)
